The target in assay [1] is somatomedin B domain (SMTB 1–44) of vitronectin (human). The assay is described as follows: ELISA; competition: SMTB 1–44 (1.25 µg/well) immobilized; Cyr61 (30 nM) mixed with stable mutant PAI-1 (0, 50, 500 nM) or ixolaris (500 nM) in PBS-T, added for 90 minutes; bound Cyr61 detected with anti-Cyr61 antibody. Background: ELISA stands for enzyme-linked immunosorbent assay.

The target of assay [2] is denatured multimeric human vitronectin (VTNC) (human).
For assay [3], the target named is somatomedin B domain (SMTB 1–44) of vitronectin (human). The assay is described as follows: SPR; kinetics, Biacore T100: monomeric (667.4 RU) or multimeric (625.2 RU) VTNC or SMTB 1–44 (337.2 RU) immobilized on CM5 by amine coupling; analyte injected 90 s at 30 µl/minute, 25°C, HBS-P (10 mM Hepes pH 7.4, 150 mM NaCl, 0.005% P20); Cyr61 fitted by the global two-state (conformational change) model, PAI-1 by the Langmuir 1:1 model. (Surface plasmon resonance follows binding to a sensor surface in real time, without labels.)

A further assay concerns the target Cyr61/CCN1 (UniProt O00622). Briefly: ELISA; competitive ELISA: wells coated with multimeric VTNC (25 ng/well); Cyr61 (30 nM) co-incubated for 90 minutes with increasing concentrations of soluble VTNC forms, SMTB 1–44 or ixolaris; VTNC-bound Cyr61 detected with anti-Cyr61 antibody.
Assay [4] addresses PAI-1 (recombinant stable mutant form) (UniProt P05121). The assay is described as follows: ITC; VP-ITC, 30°C, 5 µL injections of 10 µM SMTB 1–44 into 1 µM PAI-1 or Cyr61 in the cell; 20 mM Tris-HCl, 0.15 M NaCl, pH 7.4; single-site model. A general note: ITC needs no label: the signal is the heat of the interaction.
Assay [5] deals with denatured multimeric human vitronectin (VTNC) (human). Briefly: ELISA; solid-phase binding assay as a3 on multimeric VTNC, in TBS 0.4% Tween supplemented with 0.5% gelatin; apparent KD.
Assay [6] has the same target. The assay is described as follows: ELISA; solid-phase binding assay: VTNC (25 ng/well) or SMTB 1–44 (2.5 µg/well) immobilized on plates, Cyr61 0–1 µM in PBS-0.4% Tween 20 for 90 minutes, detected with anti-Cyr61 monoclonal antibody; apparent KD by Langmuir isotherm.
For assay [7], the target named is native monomeric human vitronectin (VTNC) (human). The description is as above.
Assay [8] has as its target somatomedin B domain (SMTB 1–44) of vitronectin (human). Described as above.
In assay [9] the target is denatured multimeric human vitronectin (VTNC) (human). Briefly: SPR; kinetics, Biacore T100: monomeric (667.4 RU) or multimeric (625.2 RU) VTNC or SMTB 1–44 (337.2 RU) immobilized on CM5 by amine coupling; analyte injected 90 s at 30 µl/minute, 25°C, HBS-P (10 mM Hepes pH 7.4, 150 mM NaCl, 0.005% P20); Cyr61 fitted by the global two-state (conformational change) model, PAI-1 by the Langmuir 1:1 model.

The target in assay [10] is native monomeric human vitronectin (VTNC) (human). Described as above.

The values that follow come from article PMC2829074.

Ends that are not written are not given here.

On to “PAI-1 (recombinant stable mutant form) (from UniProt P05121 24-402) (natural protein)”, for which the percent inhibition of Cyr61 binding to SMTB 1–44 at 500 nM PAI-1 in assay [1] is more than 80%. Besides, the inhibition of adhesion of uPAR-bearing PMA-differentiated U937 cells to VTNC-coated wells pre-incubated with stable mutant PAI-1 (1.5 µM); pair blocked: uPAR with VTNC in assay [2] was more than 90%. In addition, in assay [3], the Kd turned out to be 0.0433 nM, the koff (commonly a measure of how fast the partners let go of each other) worked out at 0.0001 s⁻¹ and the kon (usually the rate constant with which the complex forms) stood at 2.31e+06 M⁻¹ s⁻¹.
“denatured multimeric human vitronectin (VTNC) (natural protein)”: the percent inhibition of Cyr61 binding to immobilized VTNC at 15 µg/ml with Cyr61/CCN1 is more than 50%.

B1: somatomedin B domain (SMTB 1–44) of vitronectin (peptide)
peptide: DQESCKGRCTEGFNVDKKCQCDELCSYYQSCCTDYTAECKPQVT
modifications: disulfide (positions not given here); also: eight oxidized cysteines, pairing not given here
With B1, in assay [4], the Kd was less than 1 nM; the dH is -24 kcal/mol; the stoichiometry N – broadly, a count of units in the complex or per binding partner – came out at 0.77.

B2: Cyr61/CCN1 (natural protein)
chain: TCPAACHCPLEAPKCAPGVGLVRDGCGCCKVCAKQLNEDCSKTQPCDHTKGLECNFGASSTALKGICRAQSEGRPCEYNSRIYQNGESFQPNCKHQCTCIDGAVGCIPLCPQELSLPNLGCPNPRLVKVTGQCCEEWVCDEDSIKDPMEDQDGLLGKELGFDASEVELTRNNELIAVGKGSSLKRLPVFGMEPRILYNPLQGQKCIVQTTSWSQCSKTCGTGISTRVTNDNPECRLVKETRICEVRPCGQPVYSSLKKGKKCSKTKKSPEPVRFTYAGCLSVKKYRPKYCGSCVDGRCCTPQLTRTVKMRFRCEDGETFSKNVMMIQSCKCNYNCPHANEAAFPFYRLFNDIHKFRD
Consider B2, for which the Kd came out at 36.5 nM in [5]; 22.6 nM in assay [6]; 26.5 nM in [7]; 27.2 nM in [8]; 27.6 nM in assay [9]; 5.66 nM in [10]. The same molecule had a Kd in assay [3] of 10.1 nM. This molecule registered an inhibition of adhesion of uPAR-bearing PMA-differentiated U937 cells to VTNC-coated wells pre-incubated with Cyr61 (1.5 µM); pair blocked: uPAR with VTNC in [2] of 40%. For the same molecule, the ka1 (two-state model, step 1) is 104000 M⁻¹ s⁻¹ in [9], 568000 M⁻¹ s⁻¹ in assay [10] and 127000 M⁻¹ s⁻¹ in [3]. Further, the values for the ka2 (two-state model, step 2) in assay [9], in assay [10] and in [3] were 0.00255 s⁻¹, 0.00783 s⁻¹ and 0.0109 s⁻¹, respectively. Besides, the kd1 (two-state model, step 1) in assay [9] came to 0.0695 s⁻¹; in assay [10], 0.0245 s⁻¹; in [3], 0.025 s⁻¹. For the same molecule, the kd2 (two-state model, step 2) in [9] was found to be 0.00011 s⁻¹; in [10] it was 0.00118 s⁻¹; in assay [3], 0.000592 s⁻¹.
